According to paper PMC11532494 (Nature Communications, 2024):

Target: AcuC (acetoin-utilization protein C) of Bacillus subtilis (Bacillus subtilis) (UniProt P39067)
Test: dose-response enzyme inhibition (Fluor-de-Lys assay)

Sequence of AcuC (acetoin-utilization protein C) of Bacillus subtilis (Bacillus subtilis) (P39067 whole entry): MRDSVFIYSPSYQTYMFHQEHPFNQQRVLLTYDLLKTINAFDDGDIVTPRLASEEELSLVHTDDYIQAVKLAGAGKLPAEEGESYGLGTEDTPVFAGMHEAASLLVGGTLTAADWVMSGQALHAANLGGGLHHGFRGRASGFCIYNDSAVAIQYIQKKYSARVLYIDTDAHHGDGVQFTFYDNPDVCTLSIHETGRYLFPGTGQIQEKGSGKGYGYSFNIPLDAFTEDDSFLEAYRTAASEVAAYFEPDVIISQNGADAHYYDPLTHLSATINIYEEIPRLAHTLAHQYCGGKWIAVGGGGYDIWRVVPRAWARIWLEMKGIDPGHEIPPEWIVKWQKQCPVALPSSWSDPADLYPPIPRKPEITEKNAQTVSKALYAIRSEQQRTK

apicidin A (peptide) was tested, and the Ki was under 72 nM.
